# Data: the supplement of paper PMC12764529
# ± gives the half width of the 95% confidence interval.
# Assay: folding stability dG unfold from chymotrypsin proteolysis; higher = more stable
# In short: (§1)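 How resistant each design was to proteolysis was captured as K50, inferred by Bayesian fitting of sequencing counts. Unfolding free energy was then derived relative to a sequence-predicted unfolded-state K50 and a shared folded-state K50, per protease or combined. Digestion used trypsin and chymotrypsin at 11 threefold-diluted concentrations plus a no-protease condition, on mini-proteins under 80 residues without cysteine in a PA-tagged cDNA display construct. Designs were kept only when AlphaFold2 dimer inter-PAE was above 15.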
row,Sequence,folding stability dG unfold [kcal/mol]
1,SAGDEALLERIRARAEAEAKAAGPDPTPLDYRVEVEPVEIDEETGTVKVRVTITAPDREVEREVTVPLVSAG [r5_53_JUSTAS],-0.113 ± 0.096
2,SAGGSAGGSAGMTLTLEFTDPEVAIPLAEKLAEELGLELVEIEEREEGERPVYLVTLKVPSAGGSAGGSAGG [r11_232_JUSTAS],1.52 ± 0.021
3,SAGGEEKVITKEETITVPPDAGTITISSNEVIKDPNSSYTYYVKESKTVSRDPNSNVYTITLKIKVEKSAGG [r13_574_JUSTAS],0.917 ± 0.43
4,SGGMVNATVTVTLPLPDLPPVTLTVTITEEATPEEAEARKKALAAELEAELRAAAADAALPAPALTSALLSA [r9_626_JUSTAS],0.156 ± 0.43
5,SAGGMEVEITIVVPPGASLEEIEELARKLAEELGLSVENIKVTVIVVEPEEEEEEEEEKKLKEEEEKSAGGS [r16_240_TrROS_Hall],3.04 ± 0.56
6,SAGGSAGGSAGGGIYEVDENGNPLPPRPYLVLKIGYEVGYLPDGGAGLSLNIEIYPVYDASAGGSAGGSAGG [r7_572_TrMRF],4.25 ± 0.13
7,SAGGSAGGMYKVTITVTDPATGKTVATETLTLESEEEAKEYVEAVKKELPSSLTVSATITKVPESAGGSAGG [r6_690_JUSTAS],4.41 ± 0.072
8,SAGGSAGGSMTKTITTKTEEEAESEARRLLKEEGVPEGVEPTPITLESVDPEKGLYTFTVELESAGGSAGGS [r12_999_JUSTAS],0.395 ± 0.099
9,SAGGSAGGSAGEPIKGIIRVYNPETGEVTDIELEFKTLEEALAFAASLPPTVARVEIVFASAGGSAGGSAGG [r11_25_TrMRF],3.002 ± 0.03
10,SAGGSAGGSAGSKTIEVVIPVKPNELTPEQAENLIKPFFPDAKIEVTPEGNYLVVKVEVSSAGGSAGGSAGG [r11_7_TrMRF],0.334 ± 0.067
11,MEAEELATTLAAEALAPLPRPFEIDPENNEVRVPGGGELAELPIRVVLVDEDGEIVEERIVPVRIRAEEPGS [r1_318_TrMRF],0.878 ± 0.083

# Assay: folding stability dG unfold from trypsin proteolysis; higher = more stable
# In short: as §1
row,Sequence,folding stability dG unfold [kcal/mol]
1,SAGGSAGGSAGGMNPIVIKKTYPVKSGSFTVTLPEGVTPVSFEKDPNSDTITIEVLVEPSAGGSAGGSAGGS [r10_906_JUSTAS],0.63 ± 0.067
2,SMEIVFKGKNYYVPVKIDLDNPKITIETYPDKRNKVFKPLSKETAEKIAKAVEIEVAEKIAKAIAEGKPPSA [r9_368_TrMRF],0.0537 ± 0.39
3,SAGGAEIKITSIEYNPETKTITAKVEITVDGKKFTFTITIKLKAAPAPPTVTVTDKDIPGKTVTLTKTSAGG [r13_615_TrROS_Hall],1.51 ± 0.14
4,SAPIRPGQDLKIEPEIRRYPNGSMSYTYRLEFPNGPTVHVRHTMQRDPEHGKPRHKWDIHLSPKALEAFSAG [r14_842_TrROS],1.49 ± 0.057
5,SDPNKPWTAEEIAKIIEEKILEEFDVEEIIPKELKVFPKEGTVKVKMLVKYKGEPGKYFELEVEISPEELSA [r9_1002_TrMRF],1.58 ± 0.037
6,SAGGSAGGSAGGSRMRLEITVRDENGLLVRLEVEFEEKDGELEMKVRAEVFPLPEEEEESAGGSAGGSAGGS [r4_168_TrROS_Hall],0.939 ± 0.04
7,SAGGSAMKKTTATFYVRPDSLTVEIELGEKTKKLTFDPSVSIEEVKASLPDYVDEVKVKPASPSLSSAGGSA [r15_1058_JUSTAS],-0.43 ± 0.24
8,SAGGSKPILKIKITIYRIDKNGKLIKKIELTLPPLTEEQLKKLLEALKKLPKDVKIVEVKIELVEPSAGGSA [r2_75_TrROS_Hall],3.49 ± 0.32
9,SAGGSMSAEELREKIAADPRISLDDVTVTVTRTPDSVTVTVTLKDPNDPVYVEAEERARALFAELASAGGSA [r2_3_JUSTAS],0.704 ± 0.024
10,SAGGSAGMMKVTTTPVSADTVRVTVTVPGGPFTVTVTQNGVPLLTRTVPADATLTITLPPNATVVGSAGGSA [r15_581_JUSTAS],1.91 ± 0.098
11,SSVTIPFKITDPNTTIAEIAERVRELLPESLGELSVTVTFSDGTTLNVTPGENLSKYYSPDDELTITVDAPS [r1_56_JUSTAS],1.29 ± 0.034
12,SAGGSAGGSAGGTIEELVKAGKTVKVRVRLKNGETLEVEIRPDEVVEFPNIEEIEVEEVSAGGSAGGSAGGS [r10_700_TrROS_Hall],0.784 ± 0.016
13,SAGGSAGGSAMKLKVPTKDGKVYEVTVVDYDPENEKVVVKNPDTDELYTFSLEDFKKILEANSAGGSAGGSA [r18_161_TrMRF],2.72 ± 0.17
14,SAGGSAGGSGPKPRLIKLTFLLEPGKVEEFAQALRDAGFEIVSVEVEPLPDGGERATVTVRIDSAGGSAGGS [r12_905_TrMRF],2.81 ± 0.093
15,SMNITVTYDPETDTVTIEIDDEEIDPETLRELLDAIPPNVKRVIIHVDHPETARTVEELAKETGLPVEIASA [r9_919_TrMRF],3.96 ± 0.077
16,SKPDPVKIEIEQERNPNGQPQHTIKIQDKGKDRKFPIHNMSIDEFDPDDPYIKIRSPGNGQSHTIPPDDLSA [r9_1186_TrROS],-0.0606 ± 0.073
17,SVNPATQVVTVTREVTYPVPPSQGPISEEEAREAVEAELAARGWTLREVRVEYEGDTVTVTAVAERPAAASA [r9_1134_JUSTAS],1.04 ± 0.018
18,SAGGSAKDEKVVVIVRREVRLRSRPKVDLGEGNPRVEFESSVEVRVPFLVLPEDDPVARELRELEGSAGGSA [r15_470_TrMRF],-0.46 ± 0.21
19,SAGGKKEKIVEIKLLDMSYDPENKTVTFKFLVKLENGEEKVIELKISAEDFEKMSLEDILKAVKDFFESAGG [r13_512_TrMRF],3.74 ± 0.16
20,SAGPTVRQETFGEKYRIEVEVSPDGTVKVKIVNENGEVTELEGKVEPGKPVVLPFPLDGHVVNVVVLPASAG [r5_237_TrMRF],1.54 ± 0.089
21,SAGGSAGGSGEVLLLSANSFSFSEGDGLLVVVNLPNGGYVVLPFKKGDLNLNLPSSGYSEFFGSAGGSAGGS [r12_746_TrMRF],1.3 ± 0.034
